Laboratory results published in US5908790A, “Methods for removing heavy metals from aqueous solutions and for analysis” (Behring Diagnostics GmbH, priority 1990, dated 1999).

Key:
Format in all cases: binding
DTPA-Y = assay: Quantitative inhibition ELISA of mAB, competitor DTPA-Y; conditions: solid phase Y benzyl-DTPA-HSA conjugate
Method: (§1) The ELISA comprised a solid phase which was loaded with a solution containing human serum albumin (HSA)-benzyl-DTPA. The supernatant which was to be tested and contained the mAB was preincubated with free complexone or the metal ion complex thereof, and its binding to the specific solid phase was measured. For this purpose, an enzyme amplification system which is coupled to an anti-mouse-immunoglobulin antibody was used. The details of this method are described in Examples 2 and 3.
(§2) The complexones DTPA and EDTA in noncomplexed and in complexed form (Example 4) were used as competitors. Additionally, the structurally related compounds transaconitic acid and 1,2-diaminoethane were used as inhibitors (see Tab. I). The excess amounts of competitor presented in Tab. […] These characteristics make it possible to use the mAB, e.g. coupled on filters or other solid supports, for removing both noncomplexed EDTA or DTPA and EDTA-metal ion or DTPA-metal ion complexes from liquids. Precipitation reactions of mAB-/EDTA-metal ion complexes are likewise suitable for removing the toxic metal ions.
(§3) Divisible 96-well polystyrene microtiter plates (U-shape) type B. supplied by Nunc, No. 4-60445 were employed as support material. The assay was carried out according to the following protocol. […]
(§4) (15) The extinctions are measured at 492 nm in the TITERTEK^R MULTISCAN. […]

[1] = Quantitative inhibition ELISA of mAB, competitor transaconitic acid; conditions: competitor trans-aconitic acid; no inhibition up to the stated excess
Method: as §1, §2, §3, §4

[2] = Quantitative inhibition ELISA of mAB, competitor 1,2-diaminoethane; conditions: no inhibition up to the stated excess
Method: as §1, §2, §3, §4

DTPA-Cu = assay: Quantitative inhibition ELISA of mAB, competitor DTPA-Cu; conditions: solid phase Y benzyl-DTPA-HSA conjugate
Method: as §1, §2, §3, §4

DTPA-Cd = assay: Quantitative inhibition ELISA of mAB, competitor DTPA-Cd; conditions: solid phase Y benzyl-DTPA-HSA conjugate
Method: as §1, §2, §3, §4

EDTA-Cu = assay: Quantitative inhibition ELISA of mAB, competitor EDTA-Cu; conditions: solid phase Y benzyl-DTPA-HSA conjugate
Method: as §1, §2, §3, §4

[3] = Quantitative inhibition ELISA of mAB, competitor DTPA; conditions: competitor DTPA (noncomplexed); solid phase Y benzyl-DTPA-HSA conjugate
Method: as §1, §2, §3, §4

DTPA-Pb = assay: Quantitative inhibition ELISA of mAB, competitor DTPA-Pb; conditions: solid phase Y benzyl-DTPA-HSA conjugate
Method: as §1, §2, §3, §4

EDTA-Pb = assay: Quantitative inhibition ELISA of mAB, competitor EDTA-Pb; conditions: solid phase Y benzyl-DTPA-HSA conjugate
Method: as §1, §2, §3, §4

EDTA-Cd = assay: Quantitative inhibition ELISA of mAB, competitor EDTA-Cd; conditions: solid phase Y benzyl-DTPA-HSA conjugate
Method: as §1, §2, §3, §4

EDTA-Y = assay: Quantitative inhibition ELISA of mAB, competitor EDTA-Y; conditions: solid phase Y benzyl-DTPA-HSA conjugate
Method: as §1, §2, §3, §4

[4] = Quantitative inhibition ELISA of mAB, competitor EDTA
Method: as §1, §2, §3, §4

EDTA-Mn = assay: Quantitative inhibition ELISA of mAB, competitor EDTA-Mn; conditions: solid phase Y benzyl-DTPA-HSA conjugate
Method: as §1, §2, §3, §4

DTPA-Mn = assay: Quantitative inhibition ELISA of mAB, competitor DTPA-Mn; conditions: solid phase Y benzyl-DTPA-HSA conjugate
Method: as §1, §2, §3, §4

EDTA-Zn = assay: Quantitative inhibition ELISA of mAB, competitor EDTA-Zn; conditions: solid phase Y benzyl-DTPA-HSA conjugate
Method: as §1, §2, §3, §4

DTPA-Zn = assay: Quantitative inhibition ELISA of mAB, competitor DTPA-Zn; conditions: solid phase Y benzyl-DTPA-HSA conjugate
Method: as §1, §2, §3, §4

B1: mAB 2050/535: particularly suitable anti-EDTA/DTPA monoclonal antibody; VL and VH sequences in SEQ ID NO:1-4 (antibody, V domains shown)
VH: LQQSGAELVKPGASVKLSCTSGLNIKDTYINWVKQRPEQGLEWIGRIGPANGNTKYDPKFQGKATLTADTSSNTAYLQLSSLTSEDTAVYYCSRRWFFLYWGQGTTVT
VL: QLTQESALTTSPGETVTLTCRSSTGAVTTSNYATWVQEKPDHLFTGLIGGTKNRAPGVPARFSGSLIGDKAALTITGAQTEDEAIYFCALWYSNHWVFGGGTKLKI
10^2: Molar excess of competitor, which leads to 50% inhibition of binding to the solid phase antigen (DTPA-Cd) | Molar excess of competitor, which leads to 50% inhibition of binding to the solid phase antigen (EDTA-Cu) | Molar excess of competitor, which leads to 50% inhibition of binding to the solid phase antigen [3] | Molar excess of competitor, which leads to 50% inhibition of binding to the solid phase antigen (EDTA-Pb) | Molar excess of competitor, which leads to 50% inhibition of binding to the solid phase antigen (EDTA-Cd) | Molar excess of competitor, which leads to 50% inhibition of binding to the solid phase antigen (EDTA-Y) | Molar excess of competitor, which leads to 50% inhibition of binding to the solid phase antigen ([4]; competitor EDTA (noncomplexed), solid phase Y benzyl-DTPA-HSA conjugate) | Molar excess of competitor, which leads to 50% inhibition of binding to the solid phase antigen (EDTA-Mn) | Molar excess of competitor, which leads to 50% inhibition of binding to the solid phase antigen (DTPA-Mn) | Molar excess of competitor, which leads to 50% inhibition of binding to the solid phase antigen (EDTA-Zn)
10^3: Molar excess of competitor, which leads to 50% inhibition of binding to the solid phase antigen (DTPA-Cu) | Molar excess of competitor, which leads to 50% inhibition of binding to the solid phase antigen (DTPA-Pb) | Molar excess of competitor, which leads to 50% inhibition of binding to the solid phase antigen (DTPA-Zn)
particularly strong: interaction with EDTA and the complexes thereof ([4]; statement in words, EDTA and its metal complexes)
10^4: Molar excess of competitor, which leads to 50% inhibition of binding to the solid phase antigen (DTPA-Y)
> 10^5: Molar excess of competitor, which leads to 50% inhibition of binding to the solid phase antigen [1] | Molar excess of competitor, which leads to 50% inhibition of binding to the solid phase antigen [2]
